Source: patent US20150098945A1 (Daiichi Sankyo, published 2015)

T1: recombinant human ROBO4 extracellular region polypeptide rROBO4-ECD (human, UniProt Q8WZ75 28-461)
T1 construct: Expressed from pEF6/V5-His-TOPO in FreeStyle 293-F cells; also called human ROBO4-ECD
T1 sequence: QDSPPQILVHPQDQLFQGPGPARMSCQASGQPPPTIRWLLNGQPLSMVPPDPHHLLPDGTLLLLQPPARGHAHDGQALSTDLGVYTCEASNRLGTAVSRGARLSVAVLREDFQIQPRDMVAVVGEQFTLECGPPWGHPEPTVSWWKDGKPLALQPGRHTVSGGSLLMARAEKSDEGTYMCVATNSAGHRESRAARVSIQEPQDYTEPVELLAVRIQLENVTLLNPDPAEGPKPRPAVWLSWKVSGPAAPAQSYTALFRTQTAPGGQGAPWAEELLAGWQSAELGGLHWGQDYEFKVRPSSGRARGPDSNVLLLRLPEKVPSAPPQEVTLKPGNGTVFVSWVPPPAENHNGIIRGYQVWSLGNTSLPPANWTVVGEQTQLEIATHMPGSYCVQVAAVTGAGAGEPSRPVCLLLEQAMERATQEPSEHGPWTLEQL


Target: T1, recombinant human ROBO4 extracellular …
Test: SPR (Biacore 3000), antibody captured via anti-human IgG on CM5, rROBO4-ECD as analyte, 1:1 model
Protocol: The dissociation constant between each antibody and rROBO4-ECD was determined with the antibody immobilized as a ligand and the antigen as an analyte using Biacore 3000 (manufactured by GE Healthcare Bio-Sciences Corp.). Approximately 80 RU of the antibody was bound via an anti-human IgG antibody (manufactured by GE Healthcare Bio-Sciences Corp.) immobilized on a sensor chip CM5 (manufactured by GE Healthcare Bio-Sciences Corp.) by an amine coupling method. The running buffer used was PBS containing 0.05% Surfactant P20. Dilution series solutions (0.1-200 nM) of the antigen were added at a flow rate of 30 μL/min. for 300 seconds onto the antibody-bound chip. Subsequently, a dissociation phase was monitored for 300 seconds. 3 M MgCl₂ was added thereto as a regeneration solution at a flow rate of 10 μL/min. for 30 seconds. Data was analyzed using the 1:1 binding model of analysis software (BIAevaluation Software, version 4.1) to calculate an association rate constant kon, a dissociation rate constant koff, and a dissociation constant (KD; KD=koff/kon).

Kd [nM]	Binder
0.41	humanized MAb1 antibody H-1040 (antibody, human IgG2, kappa, V domains shown, Human IgG2 / kappa constant regions; also called hMAb1-H1-type heavy chain + hMAb1-L1-type light chain) VH: EVQLVESGGGLVQPGGSLRLSCAASGFTFSTYAMSWVRQAPGKGLEWVATISNGGTYTYYPDSVKGRFTISRDNAKNTLYLQMNSLRAEDTAVYYCARLIYYDYLDYWGQGTLVTVSS VL: DIVMTQSPLSLPVTLGEPASISCRSSQSLENSNGNTYLNWYLQKPGQSPQLLIYRVSNRFSGVPDRFSGSGSGTDFTLKISRVEAEDVGVYYCLQVTHVPWTFGPGTKVDIKR
0.4	humanized MAb1 antibody H-2040 (antibody, human IgG2, kappa, V domains shown, Human IgG2 / kappa constant regions; also called hMAb1-H3-type heavy chain + hMAb1-L1-type light chain) VH: EVQLVESGGGLVQPGGSLRLSCAASGFTFSTYAMSWVRQAPGKRLEWVATISNGGTYTYYPDSVKGRFTISRDNAKNTLYLQMNSLRAEDTAVYYCARLIYYDYLDYWGQGTLVTVSS VL: DIVMTQSPLSLPVTLGEPASISCRSSQSLENSNGNTYLNWYLQKPGQSPQLLIYRVSNRFSGVPDRFSGSGSGTDFTLKISRVEAEDVGVYYCLQVTHVPWTFGPGTKVDIKR
